Laboratory results from the RNAGym collection of RNA variant scans (doi:10.7554/elife.80360).

B1: Hairpin Ribozyme (parent)
chain: GUCCUCUUUCACGUGCGCGUGAAAGAGAGAAGUGAACCAGAGAAACACACGUUGUGGUAUAUUACCUGGUA

Variants of: B1
Test: self-cleavage, relative activity (ratio to wild type); higher = more cleavage; co-transcriptional

Row | Variant | self-cleavage
1 | GUCCUCUUUCACGUGCGCGUGAAAGAGAGAAGUGAACCAGAGAAACACACGGUGUGGUAUAUUACCUGGUU [U52G A71U] | 0.572
2 | GUCCUCUUUCACGUGCGCGUGAAAGAGAGAAGUGAACCAGAGAAACACACGAUGUGGUCUAUUACCUGGUA [U52A A59C] | 0.245
3 | GUCCUCUUUCACGUGCGCGUGAAAGAGAGAAGUGAACCAGAGAAACACACGAUGUGGUGUAUUACCUGGUA [U52A A59G] | 0.159
4 | GUCCUCUUUCACGUGCGCGUGAAAGAGAGAAGUGAACCAGAGAAACACACUUUGUGGUAUAUUACCUGCUA [G51U G69C] | 0.519
5 | GUCCUCUUUCACGUGCGCGUGAAAGAGAGAAGUGAACCAGAGAAACACACUUUGUCGUAUAUUACCUGGUA [G51U G56C] | 0.201
6 | GUCCUCUUUCACGUGCGCGUGAAAGAGAGAAGUGAACCAGAGAAACACACUUUGUGGUAUAUUACCUUGUA [G51U G68U] | 0.318
7 | GUCCUCUUUCACGUGCGCGUGAAAGAGAGAAGUGAACCAGAGAAACACACGCUGUGGUAUACUACCUGGUA [U52C U62C] | 0.248
8 | GUCCUCUUUCACGUGCGCGUGAAAGAGAGAAGUGAACCAGAGAAACACACGCUGUGGUAUAUUACCAGGUA [U52C U67A] | 0.178
9 | GUCCUCUUUCACGUGCGCGUGAAAGAGAGAAGUGAACCAGAGAAACACACGUAGUGGUAUAUUACCUGGAA [U53A U70A] | 0.987
10 | GUCCUCUUUCACGUGCGCGUGAAAGAGAGAAGUGAACCAGAGAAACACACGUAGUGGUAUGUUACCUGGUA [U53A A61G] | 0.0972
11 | GUCCUCUUUCACGUGCGCGUGAAAGAGAGAAGUGAACCAGAGAAACACACGUAGUGGUAUCUUACCUGGUA [U53A A61C] | 0.178
12 | GUCCUCUUUCACGUGCGCGUGAAAGAGAGAAGUGAACCAGAGAAACACACUUUCUGGUAUAUUACCUGGUA [G51U G54C] | 0.135
13 | GUCCUCUUUCACGUGCGCGUGAAAGAGAGAAGUGAACCAGAGAAACACACGUAGUCGUAUAUUACCUGGUA [U53A G56C] | 0.208
14 | GUCCUCUUUCACGUGCGCGUGAAAGAGAGAAGUGAACCAGAGAAACACACGUAGUAGUAUAUUACCUGGUA [U53A G56A] | 0.0996
15 | GUCCUCUUUCACGUGCGCGUGAAAGAGAGAAGUGAACCAGAGAAACACACGGUGUGGUAUAUUCCCUGGUA [U52G A64C] | 0.0463
16 | GUCCUCUUUCACGUGCGCGUGAAAGAGAGAAGUGAACCAGAGAAACACACGGUGUGGUAUAUUGCCUGGUA [U52G A64G] | 0.301
17 | GUCCUCUUUCACGUGCGCGUGAAAGAGAGAAGUGAACCAGAGAAACACACGAUGUGGUAUAUUACAUGGUA [U52A C66A] | 0.398
18 | GUCCUCUUUCACGUGCGCGUGAAAGAGAGAAGUGAACCAGAGAAACACACUUUGUGGUAUAUUACCUGGUC [G51U A71C] | 1.46
19 | GUCCUCUUUCACGUGCGCGUGAAAGAGAGAAGUGAACCAGAGAAACACACUUUGUGGUAUAUUACGUGGUA [G51U C66G] | 0.2

Row | Variant | self-cleavage
20 | GUCCUCUUUCACGUGCGCGUGAAAGAGAGAAGUGAACCAGAGAAACACACGGUGUCGUAUAUUACCUGGUA [U52G G56C] | 0.0868
21 | GUCCUCUUUCACGUGCGCGUGAAAGAGAGAAGUGAACCAGAGAAACACACGUAGUGGUAUAUUGCCUGGUA [U53A A64G] | 0.696
22 | GUCCUCUUUCACGUGCGCGUGAAAGAGAGAAGUGAACCAGAGAAACACACGUAGUGGUAUAUUCCCUGGUA [U53A A64C] | 0.122
23 | GUCCUCUUUCACGUGCGCGUGAAAGAGAGAAGUGAACCAGAGAAACACACGCUGUGGUAUAUUACAUGGUA [U52C C66A] | 0.279
24 | GUCCUCUUUCACGUGCGCGUGAAAGAGAGAAGUGAACCAGAGAAACACACUUUGUGGUAUAUCACCUGGUA [G51U U63C] | 0.136
25 | GUCCUCUUUCACGUGCGCGUGAAAGAGAGAAGUGAACCAGAGAAACACACGGUGUGGUAUAUUACCUGGGA [U52G U70G] | 0.933
26 | GUCCUCUUUCACGUGCGCGUGAAAGAGAGAAGUGAACCAGAGAAACACACGCUGUGGUAUAUCACCUGGUA [U52C U63C] | 0.226
27 | GUCCUCUUUCACGUGCGCGUGAAAGAGAGAAGUGAACCAGAGAAACACACGCUGUGGUAUAUAACCUGGUA [U52C U63A] | 0.206
28 | GUCCUCUUUCACGUGCGCGUGAAAGAGAGAAGUGAACCAGAGAAACACACGCUUUGGUAUAUUACCUGGUA [U52C G54U] | 0.327
29 | GUCCUCUUUCACGUGCGCGUGAAAGAGAGAAGUGAACCAGAGAAACACACGCUCUGGUAUAUUACCUGGUA [U52C G54C] | 0.0624
30 | GUCCUCUUUCACGUGCGCGUGAAAGAGAGAAGUGAACCAGAGAAACACACGCUGGGGUAUAUUACCUGGUA [U52C U55G] | 0.301
31 | GUCCUCUUUCACGUGCGCGUGAAAGAGAGAAGUGAACCAGAGAAACACACGGUGGGGUAUAUUACCUGGUA [U52G U55G] | 0.398
32 | GUCCUCUUUCACGUGCGCGUGAAAGAGAGAAGUGAACCAGAGAAACACACGGUGCGGUAUAUUACCUGGUA [U52G U55C] | 0.193
33 | GUCCUCUUUCACGUGCGCGUGAAAGAGAGAAGUGAACCAGAGAAACACACGGUGAGGUAUAUUACCUGGUA [U52G U55A] | 0.135
34 | GUCCUCUUUCACGUGCGCGUGAAAGAGAGAAGUGAACCAGAGAAACACACUUUGUGGUAUAGUACCUGGUA [G51U U62G] | 0.129
35 | GUCCUCUUUCACGUGCGCGUGAAAGAGAGAAGUGAACCAGAGAAACACACGGUGUGGUAUAUCACCUGGUA [U52G U63C] | 0.0944
36 | GUCCUCUUUCACGUGCGCGUGAAAGAGAGAAGUGAACCAGAGAAACACACGUAGUGGUAGAUUACCUGGUA [U53A U60G] | 0.684
37 | GUCCUCUUUCACGUGCGCGUGAAAGAGAGAAGUGAACCAGAGAAACACACGUAGUGGUAUAUUACCUGCUA [U53A G69C] | 0.19
38 | GUCCUCUUUCACGUGCGCGUGAAAGAGAGAAGUGAACCAGAGAAACACACGUAGUGGUAUAUUACCUGUUA [U53A G69U] | 0.26
